Measurements from article PMC11632364, “Interactions that define the arrangement of sugar-binding sites in BDCA-2 and dectin-2 dimers” (Glycobiology, 2024).
Each block holds one molecule with its values, some of them ahead of it.

Legend:
[1] = molecular target: BDCA-2 Ser49Cys variant extracellular domain fused to an N-terminal 3-heptad coiled-coil dimerization domain (human) (UniProt Q8WTT0); test: SEC; 1 x 30 cm Superdex S75, 10 mM Tris-Cl pH 7.8, 100 mM NaCl, 2.5 mM EDTA, 0.5 mL/min, room temperature; some fragments analysed at serial dilutions
[2] = molecular target: BDCA-2 Ser49Cys variant extracellular domain fused to an N-terminal 3-heptad coiled-coil dimerization domain (human) (UniProt Q8WTT0); test: non-reducing versus reducing SDS-PAGE (disulfide-linked dimer); bacterially expressed extracellular domain fusions eluted from a 5-mL desialylated egg glycopeptide column with EDTA, gels with or without 2-mercaptoethanol, Coomassie blue
[3] = molecular target: dectin-2 extracellular fragment beginning with His44 fused to an N-terminal 3-heptad coiled-coil dimerization domain (human) (UniProt Q6EIG7); test: SEC; 1 x 30 cm Superdex S75, 10 mM Tris-Cl pH 7.8, 100 mM NaCl, 2.5 mM EDTA, 0.5 mL/min, room temperature; some fragments analysed at serial dilutions
[4] = molecular target: dectin-2 extracellular fragment beginning with His44 fused to an N-terminal 3-heptad coiled-coil dimerization domain (human) (UniProt Q6EIG7); test: cross-linking; dectin-2 extracellular domain with dimerization domain in HEPES pH 7.8 buffers, bis(sulfosuccinimidyl) suberate or disuccinimidyl tartrate, serial dilutions, room temperature 30 min, reducing 17.5% SDS-PAGE, Coomassie blue
[5] = molecular target: wild type BDCA-2 extracellular domain (from His44) fused to an N-terminal 3-heptad coiled-coil dimerization domain (human) (UniProt Q8WTT0); test: SEC; 1 x 30 cm Superdex S75, 10 mM Tris-Cl pH 7.8, 100 mM NaCl, 2.5 mM EDTA, 0.5 mL/min, room temperature; some fragments analysed at serial dilutions
[6] = molecular target: the molecule itself; test: as above
[7] = molecular target: the molecule itself; test: cross-linking; BDCA-2 purified from HEK cells in HEPES pH 7.8 buffers, pooled fractions reacted with various concentrations of bifunctional reagent for 30 min, reducing SDS-PAGE, western blot
[8] = molecular target: the molecule itself; test: non-reducing versus reducing SDS-PAGE (disulfide-linked dimer); BDCA-2 purified from HEK cells by affinity chromatography (lysis with N-ethylmaleimide), gels with or without 2-mercaptoethanol, western blot with anti-BDCA-2 antiserum

stoichiometry N [1]: 2
stoichiometry N [2]: 2
Molecule: BDCA-2 Ser49Cys variant extracellular domain fused to an N-terminal 3-heptad coiled-coil dimerization domain (from UniProt Q8WTT0 44-213)

stoichiometry N [3]: 2
stoichiometry N [4]: 2
Molecule: dectin-2 extracellular fragment beginning with His44 fused to an N-terminal 3-heptad coiled-coil dimerization domain (from UniProt Q6EIG7 44-209)

stoichiometry N [5]: 2
Molecule: wild type BDCA-2 extracellular domain (from His44) fused to an N-terminal 3-heptad coiled-coil dimerization domain (from UniProt Q8WTT0 44-213)

B1: dectin-2 extracellular domain starting at Val40 (CRD plus full neck) (domain or fragment, human, UniProt Q6EIG7 40-209, looked up)
chain: VVTYHFTYGETGKRLSELHSYHSSLTCFSEGTKVPAWGCCPASWKSFGSSCYFISSEEKVWSKSEQNCVEMGAHLVVFNTEAEQNFIVQQLNESFSYFLGLSDPQGNNNWQWIDKTPYEKNVRFWHLGEPNHSAEQCASIVFWKPTGWGWNDVICETRRNSICEMNKIYL
notes: human dectin-2 (CLEC-6A) extracellular region starting at Val40; also called full extracellular domain of dectin-2; CRD plus neck fragment starting at residue Val40; source: E. coli BL21(DE3), inclusion bodies, renatured, purified on mannose-Sepharose
stoichiometry N [6]: 2

B2: blood dendritic cell antigen 2 (BDCA-2), full-length, wild type (receptor, human, UniProt Q8WTT0 1-213, looked up)
chain: MVPEEEPQDREKGLWWFQLKVWSMAVVSILLLSVCFTVSSVVPHNFMYSKTVKRLSKLREYQQYHPSLTCVMEGKDIEDWSCCPTPWTSFQSSCYFISTGMQSWTKSQKNCSVMGADLVVINTREEQDFIIQNLKRNSSYFLGLSDPGGRRHWQWVDQTPYNENVTFWHSGEPNNLDERCAIINFRSSEEWGWNDIHCHVPQKSICKMKKIYI
modifications: N-linked glycans (high mannose and complex)
notes: human BDCA-2, full-length protein expressed in HEK cells; Co-expressed with human FcRγ; no tag is mentioned; also called wild-type BDCA-2; source: HEK 293 cells, stably co-transfected with FcRγ; in lysate and purified from lysate on a desialylated egg-glycopeptide column
stoichiometry N [7]: 2

B3: BDCA-2 Ser49Cys variant, full-length (receptor, human, UniProt Q8WTT0 1-213, looked up)
chain: MVPEEEPQDREKGLWWFQLKVWSMAVVSILLLSVCFTVSSVVPHNFMYCKTVKRLSKLREYQQYHPSLTCVMEGKDIEDWSCCPTPWTSFQSSCYFISTGMQSWTKSQKNCSVMGADLVVINTREEQDFIIQNLKRNSSYFLGLSDPGGRRHWQWVDQTPYNENVTFWHSGEPNNLDERCAIINFRSSEEWGWNDIHCHVPQKSICKMKKIYI
modifications: interchain disulfide bond at Cys49; N-linked glycans (high mannose and complex)
notes: human BDCA-2, full-length construct with the naturally occurring change Ser49Cys (SNP found in a single individual); Co-expressed with human FcRγ; also called Ser49Cys form of BDCA-2; source: HEK 293 cells, stably co-transfected with FcRγ; in lysate and purified from lysate on a desialylated egg-glycopeptide column
stoichiometry N [8]: 2
